This assay deals with T1, GST-DUB3 (human, UniProt Q6R6M4 1-530).
T1 sequence (looked up): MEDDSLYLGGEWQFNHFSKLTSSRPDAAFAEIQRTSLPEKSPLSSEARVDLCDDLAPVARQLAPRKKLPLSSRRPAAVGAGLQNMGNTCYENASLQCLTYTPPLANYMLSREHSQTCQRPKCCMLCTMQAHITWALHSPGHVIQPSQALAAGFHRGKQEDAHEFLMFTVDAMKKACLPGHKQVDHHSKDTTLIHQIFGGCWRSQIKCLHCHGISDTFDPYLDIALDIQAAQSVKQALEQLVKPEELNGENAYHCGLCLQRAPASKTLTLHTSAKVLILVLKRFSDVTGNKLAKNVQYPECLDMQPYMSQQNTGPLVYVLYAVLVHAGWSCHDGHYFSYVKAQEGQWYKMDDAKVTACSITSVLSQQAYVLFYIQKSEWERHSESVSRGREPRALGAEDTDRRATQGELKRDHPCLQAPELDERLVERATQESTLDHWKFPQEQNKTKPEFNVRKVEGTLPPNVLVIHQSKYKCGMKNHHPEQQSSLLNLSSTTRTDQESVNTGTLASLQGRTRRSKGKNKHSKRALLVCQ
The assay is described as follows: pull-down.

B1: MAGEA3-His (natural protein, human, UniProt P43357 1-314, looked up)
chain: MPLEQRSQHCKPEEGLEARGEALGLVGAQAPATEEQEAASSSSTLVEVTLGEVPAAESPDPPQSPQGASSLPTTMNYPLWSQSYEDSSNQEEEGPSTFPDLESEFQAALSRKVAELVHFLLLKYRAREPVTKAEMLGSVVGNWQYFFPVIFSKASSSLQLVFGIELMEVDPIGHLYIFATCLGLSYDGLLGDNQIMPKAGLLIIVLAIIAREGDCAPEEKIWEELSVLEVFEGREDSILGDPKKLLTQHFVQENYLEYRQVPGSDPACYEFLWGPRALVETSYVKVLHHMVKISGGPHISYPPLHEWVLREGEE
Regarding B1, the binding result is listed as “binds”.

The values above are taken from paper PMC10897913 (iScience, 2024).
